In publication PMC6880876:

Molecular target: end-binding protein 3 (EB3), full-length, recombinant (UniProt Q9UPY8)
Assay: ELISA

UniProt Q9UPY8, sequence (Q9UPY8 whole entry): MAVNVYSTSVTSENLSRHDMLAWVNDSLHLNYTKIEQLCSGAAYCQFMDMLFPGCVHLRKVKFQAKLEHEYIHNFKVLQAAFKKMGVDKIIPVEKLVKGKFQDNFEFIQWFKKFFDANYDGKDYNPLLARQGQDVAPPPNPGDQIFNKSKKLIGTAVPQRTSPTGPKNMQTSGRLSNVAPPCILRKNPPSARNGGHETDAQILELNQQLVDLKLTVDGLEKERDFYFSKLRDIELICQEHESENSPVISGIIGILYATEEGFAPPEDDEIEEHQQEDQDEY

Work on “full-length WT tau (0N4R) (from UniProt P10636-6 1-383) (natural protein)” yielded a Kd of 22 nM.
